Experimental data taken from PMC11853024.

Legend:
[1] = biological target: equine LH/chorionic gonadotropin receptor (eLH/CGR), in CHO-K1 cells (equine)
[2] = biological target: rat LH/chorionic gonadotropin receptor (rLH/CGR), in CHO-K1 cells (rat) (UniProt P16235)
[3] = biological target: rat FSH receptor (rFSHR), in CHO-K1 cells (rat) (UniProt P20395)
[4] = biological target: equine LH/chorionic gonadotropin receptor from pVSVG-eLH/CGR (pCORON1000 SP VSV-G), in HEK 293 cells (equine)

Chain of UniProt P16235 (P16235 27-700): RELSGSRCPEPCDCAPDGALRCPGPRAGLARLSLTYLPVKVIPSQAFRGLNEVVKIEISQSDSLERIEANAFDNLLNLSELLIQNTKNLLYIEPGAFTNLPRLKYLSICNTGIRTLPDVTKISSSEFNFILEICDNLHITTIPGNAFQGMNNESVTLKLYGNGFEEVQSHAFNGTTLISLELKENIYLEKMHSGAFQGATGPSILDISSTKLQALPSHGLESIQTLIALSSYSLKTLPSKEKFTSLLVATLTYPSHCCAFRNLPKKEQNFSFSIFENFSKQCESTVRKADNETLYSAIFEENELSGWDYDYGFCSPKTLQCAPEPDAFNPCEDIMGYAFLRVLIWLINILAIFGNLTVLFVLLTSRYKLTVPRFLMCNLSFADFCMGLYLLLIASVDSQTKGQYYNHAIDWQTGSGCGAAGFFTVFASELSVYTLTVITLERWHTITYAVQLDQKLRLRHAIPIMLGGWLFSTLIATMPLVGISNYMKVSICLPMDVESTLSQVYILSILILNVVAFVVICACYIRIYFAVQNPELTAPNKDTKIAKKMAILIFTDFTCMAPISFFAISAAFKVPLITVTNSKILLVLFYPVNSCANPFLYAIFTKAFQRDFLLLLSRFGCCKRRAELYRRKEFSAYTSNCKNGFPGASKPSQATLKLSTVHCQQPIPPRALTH
Chain of UniProt P20395 (P20395 18-692): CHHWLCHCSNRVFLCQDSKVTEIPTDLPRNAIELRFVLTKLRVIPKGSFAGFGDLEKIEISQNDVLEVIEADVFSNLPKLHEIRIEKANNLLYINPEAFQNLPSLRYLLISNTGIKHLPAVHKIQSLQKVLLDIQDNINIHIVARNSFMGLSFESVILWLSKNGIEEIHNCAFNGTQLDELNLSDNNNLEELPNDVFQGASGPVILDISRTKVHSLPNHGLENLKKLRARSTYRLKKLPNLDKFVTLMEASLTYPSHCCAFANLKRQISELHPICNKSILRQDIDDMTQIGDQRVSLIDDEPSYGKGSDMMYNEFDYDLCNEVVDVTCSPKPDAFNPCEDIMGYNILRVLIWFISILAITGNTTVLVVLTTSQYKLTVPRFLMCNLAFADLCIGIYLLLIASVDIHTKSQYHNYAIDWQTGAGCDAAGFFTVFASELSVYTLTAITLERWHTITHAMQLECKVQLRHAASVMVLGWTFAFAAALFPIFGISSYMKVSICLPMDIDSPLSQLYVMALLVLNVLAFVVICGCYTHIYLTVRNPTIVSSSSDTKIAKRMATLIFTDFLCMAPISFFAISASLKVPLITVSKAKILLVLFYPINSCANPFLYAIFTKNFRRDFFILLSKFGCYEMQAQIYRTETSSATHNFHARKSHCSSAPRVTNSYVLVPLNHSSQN

single-chain recombinant equine chorionic gonadotropin β/α (rec-eCG β/α) (from UniProt P08751 21-169) (ligand)
cAMP production (HTRF) in CHO-K1 cells expressing eLH/CGR, 30 min with rec-eCG: EC50 [1]: 0.2 ng/mL | cAMP production (HTRF) in CHO-K1 cells expressing rLH/CGR, 30 min with rec-eCG: EC50 [2]: 0.03 ng/mL | cAMP production (HTRF) in CHO-K1 cells expressing rFSHR, 30 min with rec-eCG: EC50 [3]: 0.1 ng/mL | pERK1/2 activation (HTRF) in HEK 293 cells expressing eLH/CGR, 50 and 250 ng/mL rec-eCG, 0 to 30 min, fold over basal activity [4]: 7.8 fold
